The source of these data is paper PMC8629852 (Archives of biochemistry and biophysics, 2021).

The target in data set [1] is adrenodoxin (Homo sapiens) (UniProt P10109). As to the kind of experiment: microscale thermophoresis. The settings on record: cited from earlier work.
Data set [2] concerns the target adrenodoxin (UniProt P00257). To be noted: cited from earlier work.
Data set [3] deals with the molecule itself. As to the kind of experiment: cross-linking.

In the case of P450 27C1 (from UniProt Q4G0S4), the Kd in data set [1] is 220 nM. Take AdR (from UniProt P08165): the Kd in data set [2] was 70 nM.

B1: Human adrenodoxin (Adx), unlabeled (natural protein, UniProt P10109 61-184, looked up)
chain: SSSEDKITVHFINRDGETLTTKGKVGDSLLDVVVENNLDIDGFGACEGTLACSTCHLIFEDHIYEKLDAITDEENDMLDLAYGLTDRSRLGCQICLTKSMDNMTVRVPETVADARQSIDVGKTS
Take B1: the “stoichiometry N” value in data set [3] came out at 2.
